Measurements as given in paper PMC314469, “Protein Interaction Networks by Proteome Peptide Scanning” (PLoS Biology, 2004).

T1: amphyphisin SH3 (AMPH_HUMAN), P49418
T1 chain: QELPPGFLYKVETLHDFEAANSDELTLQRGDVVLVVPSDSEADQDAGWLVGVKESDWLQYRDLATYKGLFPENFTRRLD

B1: Q9P2C5 54-67 (peptide)
chain: GQSAPRRPSAGDGA
B2: O14776 57-71 (peptide)
chain: GPPPPPRPPFGRPP
B3: Q9BR44 22-35 (peptide)
chain: GRSALRRPWRKSGS
B4: Q9ULW0 414-428 (peptide)
chain: GPILPKKPPVKPPT
B5: Q9ULI4 1050-1063 (peptide)
chain: GREAPGRPPRAVPK
B6: O00268 106-119 (peptide)
chain: GPPSPRRPLVPAGP
B7: O94851 799-812 (peptide)
chain: GSESLSRPWRARAK
B8: Q99946 106-119 (peptide)
chain: ALLEPRRPPHDYMP
B9: Q15598 1240-1253 (peptide)
chain: GSGKPSRPSKPIVA
B10: Q9H4N7 178-191 (peptide)
chain: GRAWLRRPHPRDVG
B11: O75016 262-275 (peptide)
chain: GRDFLQRPGRQPQA
B12: Q9H8D9 660-673 (peptide)
chain: GQKLPRRPQPGPGE
B13: O75761 132-145 (peptide)
chain: GQRRLRRPLILGLG
B14: P18887 443-457 (peptide)
chain: GPSSPQKPPTPEET
B15: Q13191 898-911 (peptide)
chain: GSQAPARPPKPRPR
B16: P48634 1687-1701 (peptide)
chain: GSEPPRRPPPAPHD
B17: Q9NUC1 730-743 (peptide)
chain: ALLDPRRPEIPTEQ
B18: Q01974 4-17 (peptide)
chain: GSALPRRPLLSIPA
B19: Q9UN79 64-77 (peptide)
chain: GSPEPKRPGVSEAA
B20: Q9NZK9 120-133 (peptide)
chain: ALLTPHRPGRALSF
B21: P17480 403-416 (peptide)
chain: GSEKPKRPVSAMFI
B22: Q12984 78-91 (peptide)
chain: GPQRPRRPAKDAQP
B23: Q14163 165-178 (peptide)
chain: GQLQPSRPTRARGT
B24: Q9P0U7 35-48 (peptide)
chain: GPRPPPRPARHRSH
B25: Q9BTV6 2-15 (peptide)
chain: GRPRPRRPAQYPAR
B26: Q9HD26 258-271 (peptide)
chain: GRNDLKRPMQAPPG
B27: O00467 395-408 (peptide)
chain: GQKQPKRPRSESSS
B28: P04818 4-17 (peptide)
chain: GSELPRRPLPPAAQ
B29: P20810 625-639 (peptide)
chain: GQDKPVKPPTKKSE
B30: Q13495 380-393 (peptide)
chain: GPSPPYRPEKLSSP
B31: Q96SD2 167-180 (peptide)
chain: GPLDLRRPMRTVPG
B32: Q99687 39-53 (peptide)
chain: GPYGPHRPPQPLPP
B33: O15027 229-243 (peptide)
chain: GQQLPPRPPQSSSV
B34: O43593 424-437 (peptide)
chain: GSPAPKRPPDPFPG
B35: P81489 112-126 (peptide)
chain: GPGKPERPPPQGGD
B36: Q9NUB4 27-41 (peptide)
chain: GSGSPVRPPVSTWG
B37: BAC05028 186-200 (peptide)
chain: GRTPPARPPQDPAE
B38: Q9HCE9 774-787 (peptide)
chain: GPERPKRPGSLLAP
B39: Q8TCB4 82-96 (peptide)
chain: ALLVPVKPPTAWEG
B40: Q9NPG4 302-315 (peptide)
chain: GQVILRRPLDYEKN
B41: Q01167 591-604 (peptide)
chain: GPLGLRRPPSASSD
B42: P22681 815-829 (peptide)
chain: GSQVPERPPKPFPR

These binders were tested against endophilin SH3 (SH3G2_HUMAN), Q99962 (assay: SPOT array).

Binder | normalised SPOT signal, Boehringer light units (BLU); mean over the file's lines of this peptide
B1 | 142
B2 | 5310
B3 | 160
B4 | 1800
B5 | 19300
B6 | 2840
B7 | 91.7
B8 | 55.2
B9 | 1350
B10 | 55.2
B11 | 135
B12 | 43
B13 | 93.3
B14 | 57.4
B15 | 62500
B16 | 2350
B17 | 36.9
B18 | 2140
B19 | 17.9
B20 | 491
B21 | 2530

Binder | normalised SPOT signal, Boehringer light units (BLU); mean over the file's lines of this peptide
B22 | 10700
B23 | 111
B24 | 28600
B25 | 649
B26 | 39.5
B27 | 43.7
B28 | 70.6
B29 | 232
B30 | 684
B31 | 972
B32 | 212
B33 | 486
B34 | 706
B35 | 193
B36 | 16.6
B37 | 129
B38 | 12300
B39 | 55.1
B40 | 20.9
B41 | 116
B42 | 13600

Biological target: T1, amphyphisin SH3 (AMPH_HUMAN), P49418
Assay: SPOT array

Binder | normalised SPOT signal, Boehringer light units (BLU); mean over the file's lines of this peptide
B1 | 23.6
B2 | 1370
B3 | 531
B4 | 44.6
B5 | 2140
B6 | 20.9
B7 | 248
B8 | 33
B9 | 125
B10 | 2.1
B11 | 211
B12 | 14.9
B13 | 42.9
B14 | 43.4
B15 | 423
B16 | 372
B17 | 26.1
B18 | 36.4
B19 | 26.6
B20 | 5440
B21 | 39.3

Binder | normalised SPOT signal, Boehringer light units (BLU); mean over the file's lines of this peptide
B22 | 8400
B23 | 4840
B24 | 13100
B25 | 73.1
B26 | 32.8
B27 | 51.5
B28 | 40.1
B29 | 48.2
B30 | 243
B31 | 1070
B32 | 54.3
B33 | 66.4
B34 | 51.3
B35 | 33.9
B36 | 32.2
B37 | 69
B38 | 2440
B39 | 2.4
B40 | 19.8
B41 | 11.4
B42 | 1710
